Test results published in patent US20250346644A1 (LATTICON SUZHOU BIOPHARMACEUTICALS, published 2025).

T1: high-affinity IL2R expressed on the surface of CTLL-2 cells
T1 sequence (P01590 whole entry, species assumed, looked up): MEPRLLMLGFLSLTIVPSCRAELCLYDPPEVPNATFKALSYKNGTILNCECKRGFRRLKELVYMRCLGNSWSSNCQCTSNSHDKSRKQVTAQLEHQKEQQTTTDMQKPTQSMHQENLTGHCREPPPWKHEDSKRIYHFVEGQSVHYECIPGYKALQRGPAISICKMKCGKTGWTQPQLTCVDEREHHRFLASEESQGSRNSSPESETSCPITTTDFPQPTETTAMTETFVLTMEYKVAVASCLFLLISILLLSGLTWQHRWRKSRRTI
T1 sequence (P16297 whole entry, species assumed, looked up): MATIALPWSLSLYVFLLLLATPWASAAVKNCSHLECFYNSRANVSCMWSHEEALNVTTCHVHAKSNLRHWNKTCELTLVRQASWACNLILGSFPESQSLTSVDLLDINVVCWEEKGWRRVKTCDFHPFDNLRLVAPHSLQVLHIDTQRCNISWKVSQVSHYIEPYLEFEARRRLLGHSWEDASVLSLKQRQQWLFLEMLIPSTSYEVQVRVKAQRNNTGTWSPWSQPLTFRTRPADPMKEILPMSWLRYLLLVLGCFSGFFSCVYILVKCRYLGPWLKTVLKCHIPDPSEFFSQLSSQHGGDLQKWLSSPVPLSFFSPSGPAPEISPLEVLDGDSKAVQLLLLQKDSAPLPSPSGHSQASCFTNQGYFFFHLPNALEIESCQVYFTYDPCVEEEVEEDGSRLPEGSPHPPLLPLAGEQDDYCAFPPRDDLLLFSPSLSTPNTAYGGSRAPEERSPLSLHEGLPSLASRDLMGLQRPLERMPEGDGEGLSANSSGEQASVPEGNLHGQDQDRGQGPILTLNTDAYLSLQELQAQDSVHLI
T1 sequence (P34902 whole entry, species assumed, looked up): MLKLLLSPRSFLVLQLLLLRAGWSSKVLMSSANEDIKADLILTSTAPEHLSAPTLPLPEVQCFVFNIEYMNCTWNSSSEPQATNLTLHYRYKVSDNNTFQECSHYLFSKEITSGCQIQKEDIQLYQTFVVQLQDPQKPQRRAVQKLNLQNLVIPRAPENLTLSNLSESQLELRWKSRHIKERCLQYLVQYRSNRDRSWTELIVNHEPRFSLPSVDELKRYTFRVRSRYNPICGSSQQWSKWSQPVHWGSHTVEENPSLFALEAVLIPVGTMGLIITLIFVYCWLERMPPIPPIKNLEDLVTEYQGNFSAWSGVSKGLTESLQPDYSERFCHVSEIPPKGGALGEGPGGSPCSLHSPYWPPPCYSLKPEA

T2: hIL2Rβ (hCD122) (human, UniProt P14784 27-239, limits assumed)
T2 construct: bought recombinant protein; also called hCD122 (Acro)
T2 sequence (looked up): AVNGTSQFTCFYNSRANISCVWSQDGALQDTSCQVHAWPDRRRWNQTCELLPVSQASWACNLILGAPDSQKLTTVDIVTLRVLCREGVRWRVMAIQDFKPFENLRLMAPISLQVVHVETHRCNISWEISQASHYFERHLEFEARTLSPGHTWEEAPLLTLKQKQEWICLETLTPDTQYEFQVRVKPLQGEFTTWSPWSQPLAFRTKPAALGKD

T3: hIL2Rα (hCD25) (human, UniProt P01589 22-213, limits assumed)
T3 construct: bought recombinant protein; also called hCD25 (Acro); biotin-CD25 (Acro)
T3 sequence (looked up): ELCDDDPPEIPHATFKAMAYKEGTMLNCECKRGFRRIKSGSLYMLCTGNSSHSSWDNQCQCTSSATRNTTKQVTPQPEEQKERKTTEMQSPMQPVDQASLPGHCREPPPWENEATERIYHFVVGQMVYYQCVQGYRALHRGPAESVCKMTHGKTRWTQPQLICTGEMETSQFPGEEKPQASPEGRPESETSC

T4: hIL2Rα/β complex (human, UniProt P01589 22-213; P14784 27-239)
T4 construct: assembled in the BLI assay from bought subunits; also called hIL2Rα/O complex
T4 sequence (looked up) 1: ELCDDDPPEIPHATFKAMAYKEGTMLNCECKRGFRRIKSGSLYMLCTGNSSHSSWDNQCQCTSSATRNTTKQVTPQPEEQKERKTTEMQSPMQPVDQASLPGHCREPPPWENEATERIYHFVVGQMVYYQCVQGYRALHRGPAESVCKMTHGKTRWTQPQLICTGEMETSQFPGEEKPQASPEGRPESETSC
T4 sequence (looked up) 2: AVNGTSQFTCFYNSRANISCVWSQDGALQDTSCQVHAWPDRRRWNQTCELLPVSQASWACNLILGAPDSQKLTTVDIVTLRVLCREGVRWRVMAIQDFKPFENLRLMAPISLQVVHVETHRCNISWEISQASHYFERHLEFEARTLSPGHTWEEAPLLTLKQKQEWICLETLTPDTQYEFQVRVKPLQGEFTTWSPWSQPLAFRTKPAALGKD

T5: hIL2Rα/β/γ complex (human, UniProt P01589 22-213; P14784 27-239; P31785 23-254)
T5 construct: assembled in the BLI assay from bought subunits; also called hIL2Rα/o/γ complex
T5 sequence (looked up) 1: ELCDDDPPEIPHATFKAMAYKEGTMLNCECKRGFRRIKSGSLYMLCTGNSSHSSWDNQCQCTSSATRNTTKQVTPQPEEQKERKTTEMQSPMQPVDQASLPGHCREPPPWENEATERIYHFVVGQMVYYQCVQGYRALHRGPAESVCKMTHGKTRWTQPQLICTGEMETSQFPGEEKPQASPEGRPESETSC
T5 sequence (looked up) 2: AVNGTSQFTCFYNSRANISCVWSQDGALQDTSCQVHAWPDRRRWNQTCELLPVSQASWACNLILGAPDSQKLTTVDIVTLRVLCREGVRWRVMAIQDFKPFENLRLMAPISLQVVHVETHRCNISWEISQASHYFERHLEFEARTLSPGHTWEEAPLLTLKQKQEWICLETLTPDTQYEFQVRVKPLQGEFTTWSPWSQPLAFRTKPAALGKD
T5 sequence (looked up) 3: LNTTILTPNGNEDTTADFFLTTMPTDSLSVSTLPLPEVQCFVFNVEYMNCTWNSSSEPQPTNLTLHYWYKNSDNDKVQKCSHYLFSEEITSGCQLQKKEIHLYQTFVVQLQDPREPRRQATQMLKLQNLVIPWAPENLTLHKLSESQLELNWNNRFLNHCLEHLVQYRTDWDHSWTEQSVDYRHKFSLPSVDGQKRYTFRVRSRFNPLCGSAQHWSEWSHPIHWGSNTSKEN


Legend:
[1] = biological target: T1, high-affinity IL2R expressed on the …; experiment: cell-based or functional assay
[2] = biological target: T1, high-affinity IL2R expressed on the …; experiment: cell-based or functional assay; remark: listed apart in the source
hIL2Rβ (hCD122) = biological target: T2, hIL2Rβ (hCD122); experiment: ELISA (method of section 2.1.1): sample captured on coated goat anti-human IgG, hCD122 titrated; the x axis is the CD122 concentration
Experimental: ELISA was performed as follows: a goat anti-human IgG (Jackson Immunoresearch) was diluted to 1 μg/mL in 1×PBS and added to an ELISA plate at 100 μL/well, and then incubated at 4° C. overnight. The plate was washed with PBS and then blocked at room temperature for 1 hour after adding the blocking solution (PBST containing 1% BSA) to each well. […] The plate was washed with PBST; the HRP-labeled anti-6×His-tag secondary antibody (Proteintech) diluted at a ratio of 1:10,000 in blocking solution was then added to each well and incubated at room temperature for 1 hour. The plate was washed with PBST; the TMB chromogenic solution (Thermo) was added to each well and incubated in dark for 3-10 minutes at room temperature. The stop solution (2 M HCl) was added to each well, and OD values at a wavelength of 450-570 nm were read using a multimode microplate reader (Varioskan, Thermo).

hIL2Rα (hCD25) [3] = biological target: T3, hIL2Rα (hCD25); experiment: BLI (ForteBio): biotin-CD25 on an SA sensor, buffer step, then sample (100 nM by the text)
hIL2Rα/β complex = biological target: T4, hIL2Rα/β complex; experiment: BLI (ForteBio): biotin-CD25 on an SA sensor, CD122 step, then sample (100 nM by the text) together with CD122
Experimental: (§1) The specific method was described as follows: biotin-CD25 (Acro) was diluted in 1×PBS to 5 μg/mL and added to a 96-well black-wall plate at 200 μL per well; hIL2Rβ (Acro) was diluted to 5 μg/mL in 1×PBS and also added to the 96-well black-wall plate at 200 μL per well. […] The 96-well black-wall plate containing the testing samples and a SA sensor was uploaded onto the analyzer, and a program was inputted. The SA sensor was firstly immersed into the well with biotin-CD25 (Acro) and then with hIL2Rβ (Acro) till saturation. After that, the sensor was immersed in the testing sample well and the binding signal was recorded in real-time. At the end of each association-dissociation cycle, the sensor was regenerated by immersing in 500 mM phosphate buffer and then started with the next cycle of detection.

hIL2Rα/β/γ complex = biological target: T5, hIL2Rα/β/γ complex; experiment: BLI (ForteBio): biotin-CD25 on an SA sensor, CD122 step, then sample (100 nM by the text) together with CD132
Experimental: as §1

hIL2Rα (hCD25) [4] = biological target: T3, hIL2Rα (hCD25); experiment: ELISA (method of section 4.2.1): sample captured on coated goat anti-human IgG, hCD25 titrated; the x axis is the CD25 concentration

| Binder | STAT5 phosphorylation in CTLL-2 cells by flow cytometry, EC50 [1] [nM] | Activity in Promoting CTLL-2 Cell Proliferation (EC50, nM) [2] [nM] | binding result (hIL2Rβ (hCD122)) | binding result (hIL2Rα (hCD25) [3]) | binding result (hIL2Rα/β complex) | binding result (hIL2Rα/β/γ complex) | binding result (hIL2Rα (hCD25) [4]) |
| --- | --- | --- | --- | --- | --- | --- | --- |
| IC-Cy08 (other, hIL-2/anti-IL-2 antibody fusion protein, disulfide IL:65-H:97; also called H6K3(H)-Cy08; H6K3(H)-Cy-08) heavy: APTSSSTKKTQLQLEHLLLDLQMILNGINNYKNPKLTRMLTFKFYMPKKATELKHLQCLEEELGCLEEVLNLAQSKNFHLRPRDLISNIRVIVLELKGSETTFMCEYADETATIVEFLNRWITFCQSIISTLTGGGGSGGGGSGGGGSGGGGSQVQLVQSGAEVKKPGATVKISCKVSGDTITAYYMHWVRQAPGQGLEWIGRIDPEDDSTKYAENFKGRVTITADTSTDTAYMELSSLRSEDTAVYYCTTVTCYYSRELRWFAYWGQGTLVTVSS VL: DIVLTQSPATLSLSPGERATLSCQASQDIGNYLSWYQQKPGQAPRLLIYSATSLASGIPARFSGSRSGTDFTLTISSLEPEDFAVYYCLQHYSTPYTFGQGTKLEIK | 0.234 | 0.425 | binds | – | – | – | – |
| hIL2-DM (Δ3, C125L) (ligand, first three N-terminal residues (APT) deleted; also called hIL2-DM (Δ3, 125L); hIL2-DM (Δ3, C125L) mutein) SSSTKKTQLQLEHLLLDLQMILNGINNYKNPKLTRMLTFKFYMPKKATELKHLQCLEEELGPLEEVLNLAQSKNFHLRPRDLISNIRVIVLELKGSETTFMCEYADETATIVEFLNRWITFLQSIISTLT | – | 0.156 | – | binds | binds | binds | – |
| H6K3(H)-Cy10 (other, fusion with the parental antibody hS4B6-H6K3(H), disulfide IL:42-H:97; also called H6K3-Cy10) heavy: SSSTKKTQLQLEHLLLDLQMILNGINNYKNPKLTRMLTCKFYMPKKATELKHLQCLEEELGPLEEVLNLAQSKNFHLRPRDLISNIRVIVLELKGSETTFMCEYADETATIVEFLNRWITFLQSIISTLTGGGGSGGGGSGGGGSGGGGSQVQLVQSGAEVKKPGATVKISCKVSGDTITAYYMHWVRQAPGQGLEWIGRIDPEDDSTKYAENFKGRVTITADTSTDTAYMELSSLRSEDTAVYYCTTVTCYYSRELRWFAYWGQGTLVTVSS VL: DIVLTQSPATLSLSPGERATLSCQASQDIGNYLSWYQQKPGQAPRLLIYSATSLASGIPARFSGSRSGTDFTLTISSLEPEDFAVYYCLQHYSTPYTFGQGTKLEIK | – | – | – | – | – | – | no binding (tested: 10 µg/mL) |
